Assay results: US20120308513A1 (DENDREON, published 2012)

Tests used:
Experiment in all cases: cell-based or functional assay
[1] = molecular target: HLA-DRB1*0302 (human)
[2] = molecular target: HLA-DRB1*040301 (human)
[3] = molecular target: HLA-DRB1*110401 (human)
[4] = molecular target: HLA-DRB1*0701 (human)
[5] = molecular target: HLA-DRB1*0103 (human)
[6] = molecular target: HLA-DRB1*0301 (human)
[7] = molecular target: HLA-DRB1*1401 (human)
[8] = molecular target: HLA-DRB1*1301 (human)
[9] = molecular target: HLA-DRB1*080101 (human)
[10] = molecular target: HLA-DRB1*0401 (human)
[11] = molecular target: HLA-DRB1*0101 (human)
[12] = molecular target: HLA-DRB1*160201 (human)
[13] = molecular target: HLA-DRB1*1201 (human)
[14] = molecular target: HLA-DRB1*0402 (human)
[15] = molecular target: HLA-DRB1*1103 (human)
[16] = molecular target: HLA-DRB1*0102 (human)
[17] = molecular target: HLA-DRB1*1104 (human)
[18] = molecular target: HLA-DRB1*040501 (human)
[19] = molecular target: HLA-DRB1*1402 (human)
[20] = molecular target: HLA-DRB1*1101 (human)
[21] = molecular target: HLA-DRB1*0901 (human)
[22] = molecular target: HLA-DRB1*080201 (human)
[23] = molecular target: HLA-DRB1*1503 (human)
[24] = molecular target: HLA-DRB1*1102 (human)
[25] = molecular target: HLA-DRB1*1302 (human)

IFNγ production by T cell clone HER500.23c21, HERp270-284 at 1 µg/mL presented by the homozygous EBV-LcL line (ELISA) [1]: > 4000 pg/mL
IFNγ production by T cell clone HER500.23c21, HERp270-284 at 1 µg/mL presented by the homozygous EBV-LcL line (ELISA) [2]: > 4000 pg/mL
IFNγ production by T cell clone HER500.23c21, HERp270-284 at 1 µg/mL presented by the homozygous EBV-LcL line (ELISA) [3]: > 4000 pg/mL
IFNγ production by T cell clone HER500.23c21, HERp270-284 at 1 µg/mL presented by the homozygous EBV-LcL line (ELISA) [4]: > 4000 pg/mL
IFNγ production by T cell clone HER500.23c21, HERp270-284 at 1 µg/mL presented by the homozygous EBV-LcL line (ELISA) [5]: > 4000 pg/mL
IFNγ production by T cell clone HER500.23c21, HERp270-284 at 1 µg/mL presented by the homozygous EBV-LcL line (ELISA) [6]: > 4000 pg/mL
IFNγ production by T cell clone HER500.23c21, HERp270-284 at 1 µg/mL presented by the homozygous EBV-LcL line (ELISA) [7]: > 4000 pg/mL
IFNγ production by T cell clone HER500.23c21, HERp270-284 at 1 µg/mL presented by the homozygous EBV-LcL line (ELISA) [8]: > 4000 pg/mL
IFNγ production by T cell clone HER500.23c21, HERp270-284 at 1 µg/mL presented by the homozygous EBV-LcL line (ELISA) [9]: > 4000 pg/mL
IFNγ production by T cell clone HER500.23c21, HERp270-284 at 1 µg/mL presented by the homozygous EBV-LcL line (ELISA) [10]: > 4000 pg/mL
IFNγ production by T cell clone HER500.23c21, HERp270-284 at 1 µg/mL presented by the homozygous EBV-LcL line (ELISA) [11]: > 4000 pg/mL
IFNγ production by T cell clone HER500.23c21, HERp270-284 at 1 µg/mL presented by the homozygous EBV-LcL line (ELISA) [12]: > 4000 pg/mL
IFNγ production by T cell clone HER500.23c21, HERp270-284 at 1 µg/mL presented by the homozygous EBV-LcL line (ELISA) [13]: > 4000 pg/mL
IFNγ production by T cell clone HER500.23c21, HERp270-284 at 1 µg/mL presented by the homozygous EBV-LcL line (ELISA) [14]: > 4000 pg/mL
IFNγ production by T cell clone HER500.23c21, HERp270-284 at 1 µg/mL presented by the homozygous EBV-LcL line (ELISA) [15]: > 4000 pg/mL
IFNγ production by T cell clone HER500.23c21, HERp270-284 at 1 µg/mL presented by the homozygous EBV-LcL line (ELISA) [16]: > 4000 pg/mL
IFNγ production by T cell clone HER500.23c21, HERp270-284 at 1 µg/mL presented by the homozygous EBV-LcL line (ELISA) [17]: > 4000 pg/mL
IFNγ production by T cell clone HER500.23c21, HERp270-284 at 1 µg/mL presented by the homozygous EBV-LcL line (ELISA) [18]: > 4000 pg/mL
IFNγ production by T cell clone HER500.23c21, HERp270-284 at 1 µg/mL presented by the homozygous EBV-LcL line (ELISA) [19]: > 4000 pg/mL
IFNγ production by T cell clone HER500.23c21, HERp270-284 at 1 µg/mL presented by the homozygous EBV-LcL line (ELISA) [20]: > 4000 pg/mL
IFNγ production by T cell clone HER500.23c21, HERp270-284 at 1 µg/mL presented by the homozygous EBV-LcL line (ELISA) [21]: > 4000 pg/mL
IFNγ production by T cell clone HER500.23c21, HERp270-284 at 1 µg/mL presented by the homozygous EBV-LcL line (ELISA) [22]: > 4000 pg/mL
IFNγ production by T cell clone HER500.23c21, HERp270-284 at 1 µg/mL presented by the homozygous EBV-LcL line (ELISA) [23]: > 4000 pg/mL
IFNγ production by T cell clone HER500.23c21, HERp270-284 at 1 µg/mL presented by the homozygous EBV-LcL line (ELISA) [24]: > 4000 pg/mL
IFNγ production by T cell clone HER500.23c21, HERp270-284 at 1 µg/mL presented by the homozygous EBV-LcL line (ELISA) [25]: > 4000 pg/mL
Binder: ALVTYNTDTFESMPN [HER500 peptide #63 (HERp270-284)]
